Data taken from the MegaScale stability set (Tsuboyama et al. 2023).

B1: r4_43_TrROS_Hall (parent)
chain: DLVTIKVPLENLEEIKKAAEKAGFKIVSISYDKENKEVTIVIEKKK

Variants of: B1
Test: folding stability dG (cDNA display proteolysis); higher = more stable
Conditions: PBS, room temperature
In the case of DLVTIKVPLENLEEIKKAAEKAGFKIVSISFDKENKEVTIVIEKKK [Y31F], the “folding stability dG” value is reported as 3.3 kcal/mol.
In the case of DLVTIKVPLENLEEIKKAAEKAGFKIVSISYDKENHEVTIVIEKKK [K36H], the “folding stability dG” value is reported as 3.4 kcal/mol.
For DLVTIKVPLENLEEIKKAAEKAGFKIVSISYDKENEEVTIVIEKKK [K36E], the “folding stability dG” value was 3.22 kcal/mol.
For DLVTIKVPLENLEEIKKAAEKAGFKIVSISYDKENREVTIVIEKKK [K36R], the “folding stability dG” value was 3.88 kcal/mol.
With DLVTIKVPLENLEEIKKAAEKAGFKIVSISYDKENTEVTIVIEKKK [K36T] the “folding stability dG” value was 3.48 kcal/mol.
For DLVTIKVPLENLEEIKKAAEKAGFKIVSISYDKENIEVTIVIEKKK [K36I], the “folding stability dG” value was 3.54 kcal/mol.
For DLVTIKVPLENLEEIKKAAEKAGFKIVSISYDKENCEVTIVIEKKK [K36C], the “folding stability dG” value was 3.19 kcal/mol.
For DLVTIKVPLENLEEIKKAAEKAGFKIVSISYDKENLEVTIVIEKKK [K36L], the “folding stability dG” value was 3.71 kcal/mol.
In the case of DLVTIKVPLENLEEIKKAAEKAGFKIVSISYDKENGEVTIVIEKKK [K36G], the “folding stability dG” value is reported as 3.64 kcal/mol.
With DLVTIKVPLENLEEIKKAAEKAGFKIVSISYDKENDEVTIVIEKKK [K36D] the “folding stability dG” value was 3.28 kcal/mol.
For DLVTIKVPLENLEEIKKAAEKAGFKIVSISYDKENPEVTIVIEKKK [K36P], the “folding stability dG” value was 3.39 kcal/mol.
In the case of DLVTIKVPLENLEEIKKAAEKAGFKIVSISYDKENAEVTIVIEKKK [K36A], the “folding stability dG” value is reported as 3.57 kcal/mol.
With DLVTIKVPLENLEEIKKAAEKAGFKIVSISYDKENNEVTIVIEKKK [K36N] the “folding stability dG” value was 3.51 kcal/mol.
With DLVTIKVPLENLEEIKKAAEKAGFKIVSISYDKENSEVTIVIEKKK [K36S] the “folding stability dG” value was 3.46 kcal/mol.
For DLVTIKVPLENLEEIKKAAEKAGFKIVSISYDKENFEVTIVIEKKK [K36F], the “folding stability dG” value was 3.48 kcal/mol.
For DLVTIKVPLENLEEIKKAAEKAGFKIVSISYDKENQEVTIVIEKKK [K36Q], the “folding stability dG” value was 3.48 kcal/mol.
For DLVTIKVPLENLEEIKKAAEKAGFKIVSISYDKENMEVTIVIEKKK [K36M], the “folding stability dG” value was 3.22 kcal/mol.
In the case of DLVTIKVPLENLEEIKKAAEKAGFKIVSIYYDKENKEVTIVIEKKK [S30Y], the “folding stability dG” value is reported as 3.83 kcal/mol.
With DLVTIKVPLENLEEIKKAAEKAGFKIVSIWYDKENKEVTIVIEKKK [S30W] the “folding stability dG” value was 3.71 kcal/mol.
In the case of DLVTIKVPLENLEEIKKAAEKAGFKIVSISYDKEWKEVTIVIEKKK [N35W], the “folding stability dG” value is reported as 3.75 kcal/mol.
For DLVTIKVPLENLEEIKKAAEKAGFKIVSISYDKEYKEVTIVIEKKK [N35Y], the “folding stability dG” value was 3.72 kcal/mol.
With DLVTIKVPLENLEEIKKAAEKAGFKIVSISYDKEFKEVTIVIEKKK [N35F] the “folding stability dG” value was 3.5 kcal/mol.
With DLVTIKVPLENLEEIKKAAEKAGFKIVSISYDKEHKEVTIVIEKKK [N35H] the “folding stability dG” value was 3.54 kcal/mol.
For DLVTIKVPLENLEEIKKAAEKAGFKIVSISYDKEMKEVTIVIEKKK [N35M], the “folding stability dG” value was 3.93 kcal/mol.
In the case of DLVTIKVPLENLEEIKKAAEKAGFKIVSISYDKESKEVTIVIEKKK [N35S], the “folding stability dG” value is reported as 3.55 kcal/mol.
In the case of DLVTIKVPLENLEEIKKAAEKAGFKIVSISYDKEKKEVTIVIEKKK [N35K], the “folding stability dG” value is reported as 3.17 kcal/mol.
In the case of DLVTIKVPLENLEEIKKAAEKAGFKIVSISYDKERKEVTIVIEKKK [N35R], the “folding stability dG” value is reported as 3.98 kcal/mol.
With DLVTIKVPLENLEEIKKAAEKAGFKIVSISYDKEQKEVTIVIEKKK [N35Q] the “folding stability dG” value was 3.54 kcal/mol.
For DLVTIKVPLENLEEIKKAAEKAGFKIVSISYDKEPKEVTIVIEKKK [N35P], the “folding stability dG” value was 3.2 kcal/mol.
In the case of DLVTIKVPLENLEEIKKAAEKAGFKIVSISYDKEEKEVTIVIEKKK [N35E], the “folding stability dG” value is reported as 3.47 kcal/mol.
With DLVTIKVPLENLEEIKKAAEKAGFKIVSISYDKETKEVTIVIEKKK [N35T] the “folding stability dG” value was 3.4 kcal/mol.
In the case of DLVTIKVPLENLEEIKKAAEKAGFKIVSISYDKEVKEVTIVIEKKK [N35V], the “folding stability dG” value is reported as 3.17 kcal/mol.
For DLVTIKVPLENLEEIKKAAEKAGFKIVSISYDKELKEVTIVIEKKK [N35L], the “folding stability dG” value was 3.47 kcal/mol.
For DLVTIKVPLENLEEIKKAAEKAGFKIVSISYDKEAKEVTIVIEKKK [N35A], the “folding stability dG” value was 3.24 kcal/mol.
In the case of DLVTIKVPLENLEEIKKAAEKAGFKIVSISYDKEDKEVTIVIEKKK [N35D], the “folding stability dG” value is reported as 3.73 kcal/mol.
With DLVTIKVPLENLEEIKKAAEKAGFKIVSISYDKEGKEVTIVIEKKK [N35G] the “folding stability dG” value was 3.61 kcal/mol.
With DLVTIKVPLENLEEIKKAAEKAGFKIVSISYDKEIKEVTIVIEKKK [N35I] the “folding stability dG” value was 3.52 kcal/mol.
With DLVTIKVPLENLEEIKKAAEKAGFKIVSISYFKENKEVTIVIEKKK [D32F] the “folding stability dG” value was 3.67 kcal/mol.
For DLVTIKVPLENLEEIKKAAEKAGFKIVSISYGKENKEVTIVIEKKK [D32G], the “folding stability dG” value was 3.82 kcal/mol.
With DLVTIKVPLENLEEIKKAAEKAGFKIVSISYVKENKEVTIVIEKKK [D32V] the “folding stability dG” value was 3.33 kcal/mol.
In the case of DLVTIKVPLENLEEIKKAAEKAGFKIVSISYSKENKEVTIVIEKKK [D32S], the “folding stability dG” value is reported as 4.21 kcal/mol.
For DLVTIKVPLENLEEIKKAAEKAGFKIVSISYEKENKEVTIVIEKKK [D32E], the “folding stability dG” value was 3.62 kcal/mol.
In the case of DLVTIKVPLENLEEIKKAAEKAGFKIVSISYHKENKEVTIVIEKKK [D32H], the “folding stability dG” value is reported as 3.67 kcal/mol.
With DLVTIKVPLENLEEIKKAAEKAGFKIVSISYIKENKEVTIVIEKKK [D32I] the “folding stability dG” value was 3.39 kcal/mol.
With DLVTIKVPLENLEEIKKAAEKAGFKIVSISYWKENKEVTIVIEKKK [D32W] the “folding stability dG” value was 3.62 kcal/mol.
With DLVTIKVPLENLEEIKKAAEKAGFKIVSISYTKENKEVTIVIEKKK [D32T] the “folding stability dG” value was 3.81 kcal/mol.
With DLVTIKVPLENLEEIKKAAEKAGFKIVSISYCKENKEVTIVIEKKK [D32C] the “folding stability dG” value was 3.85 kcal/mol.
In the case of DLVTIKVPLENLEEIKKAAEKAGFKIVSISYKKENKEVTIVIEKKK [D32K], the “folding stability dG” value is reported as 3.04 kcal/mol.
With DLVTIKVPLENLEEIKKAAEKAGFKIVSISYAKENKEVTIVIEKKK [D32A] the “folding stability dG” value was 3.54 kcal/mol.
For DLVTIKVPLENLEEIKKAAEKAGFKIVSISYMKENKEVTIVIEKKK [D32M], the “folding stability dG” value was 3.48 kcal/mol.
In the case of DLVTIKVPLENLEEIKKAAEKAGFKIVSISYPKENKEVTIVIEKKK [D32P], the “folding stability dG” value is reported as 2.77 kcal/mol.
In the case of DLVTIKVPLENLEEIKKAAEKAGFKIVSISYRKENKEVTIVIEKKK [D32R], the “folding stability dG” value is reported as 2.93 kcal/mol.
In the case of DLVTIKVPLENLEEIKKAAEKAGFKIVSISYNKENKEVTIVIEKKK [D32N], the “folding stability dG” value is reported as 4.06 kcal/mol.
In the case of DLVTIKVPLENLEEIKKAAEKAGFKIVSISYLKENKEVTIVIEKKK [D32L], the “folding stability dG” value is reported as 3.21 kcal/mol.
With DLVTIKVPLENLEEIKKAAEKAGFKIVSISYQKENKEVTIVIEKKK [D32Q] the “folding stability dG” value was 3.56 kcal/mol.
With DLVTIKVPLENLEEIKKAAEKAGFKIVSISYYKENKEVTIVIEKKK [D32Y] the “folding stability dG” value was 3.65 kcal/mol.
